# Results from IntAct's records for PubMed 22020126.
# B1: Histone acetyltransferase ESA1 (Saccharomyces cerevisiae), Q08649 (parent)
# chain: MSHDGKEEPGIAKKINSVDDIIIKCQCWVQKNDEERLAEILSINTRKAPPKFYVHYVNYNKRLDEWITTDRINLDKEVLYPKLKATDEDNKKQKKKKATNTSETPQDSLQDGVDGFSRENTDVMDLDNLNVQGIKDENISHEDEIKKLRTSGSMTQNPHEVARVRNLNRIIMGKYEIEPWYFSPYPIELTDEDFIYIDDFTLQYFGSKKQYERYRKKCTLRHPPGNEIYRDDYVSFFEIDGRKQRTWCRNLCLLSKLFLDHKTLYYDVDPFLFYCMTRRDELGHHLVGYFSKEKESADGYNVACILTLPQYQRMGYGKLLIEFSYELSKKENKVGSPEKPLSDLGLLSYRAYWSDTLITLLVEHQKEITIDEISSMTSMTTTDILHTAKTLNILRYYKGQHIIFLNEDILDRYNRLKAKKRRTIDPNRLIWKPPVFTASQLRFAW
# B2: Histone acetyltransferase KAT8 (Homo sapiens), Q9H7Z6 (parent)
# chain: MAAQGAAAAVAAGTSGVAGEGEPGPGENAAAEGTAPSPGRVSPPTPARGEPEVTVEIGETYLCRRPDSTWHSAEVIQSRVNDQEGREEFYVHYVGFNRRLDEWVDKNRLALTKTVKDAVQKNSEKYLSELAEQPERKITRNQKRKHDEINHVQKTYAEMDPTTAALEKEHEAITKVKYVDKIHIGNYEIDAWYFSPFPEDYGKQPKLWLCEYCLKYMKYEKSYRFHLGQCQWRQPPGKEIYRKSNISVYEVDGKDHKIYCQNLCLLAKLFLDHKTLYFDVEPFVFYILTEVDRQGAHIVGYFSKEKESPDGNNVACILTLPPYQRRGYGKFLIAFSYELSKLESTVGSPEKPLSDLGKLSYRSYWSWVLLEILRDFRGTLSIKDLSQMTSITQNDIISTLQSLNMVKYWKGQHVICVTPKLVEEHLKSAQYKKPPITVDSVCLKWAPPKHKQVKLSKK
# Variants of: B1
# Details: with h4_yeast HHF1, P02309
row,effect of a mutation on the interaction,Variant
1,decreasing interaction,K262Q

# Variants of: B1
# Details: with h4_yeast HHF1, P02309
# Remark: another data set of the same source
row,effect of a mutation on the interaction,Variant
1,disrupting interaction,K262A

# Variants of: B1
# Details: with h4_yeast HHF1, P02309
# Remark: another data set of the same source
row,effect of a mutation on the interaction,Variant
1,disrupting interaction,K262R

# Variants of: B2
# Details: with h4_yeast HHF1, P02309
row,effect of a mutation on the interaction,Variant
1,disrupting interaction,K274R

# Variants of: B2
# Details: with h4_yeast HHF1, P02309
# Remark: another data set of the same source
row,effect of a mutation on the interaction,Variant
1,disrupting interaction,K274A
